Measurements: the nanobody polyreactivity screen of Harvey et al. (2022)

experiment: yeast display, Sf9 membrane polyspecificity reagent, FACS + sequencing; frameworks hold sequencing errors
Method in brief: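 Nanobodies from a synthetic yeast display library (Saccharomyces cerevisiae BJ5465), induced 36–48 hours with galactose, were stained 1 hour at 4 °C with 10% biotinylated, detergent-solubilized Sf9 membrane reagent, enriched on streptavidin microbeads, then FACS-sorted. Anti-HA (expression) and streptavidin (reagent binding) fluorescence set low and high (top ~1%) gates. Polyreactivity labels come from the gate of origin. Genes were colony-PCR amplified, MiSeq 2 × 250 sequenced and filtered by CDR length.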

Sequence	polyreactivity (PSR sort gate)
QVQLVESGGGLVQAGGSLRLSCAASGSTFNLYAMGWYRQAPGKERELVAAISDGDSSTYYADSVKGRFTISRDNAKNTVYLQMNSLKPEDTAVYYCAADFSVYTEEDDSWGQGTQVTVSS	low polyreactivity
QVQLVESGGGLVQAGGSLRLSCAASGSTFNRNAMGWYRQAPGKERELVAAISWRGDSTSYADSVKGRFTISRDNAKNTVYLQMNSLKPEDTAVSYCAADYYYGQGQPDEDNYWGQGTQVTVSS	low polyreactivity
QVQLVESGGGLVQAGGSLRLSCAASGSTFNRYAMGWYRPAPGKERELVASISWGGGRTYYADSVKGRFTISRDNAKNTVDFQLNSLKPEDTAVYFCATDRYDRHYEVDYWGQGTQVTVSS	low polyreactivity
QVQLVESGGGLVQAGGSLRLSCAASGSTFNSYTMGWYRKAPGKERELVAAITLSGGRTYYADSVKGRFTISRDNAKNTVYLQMNSLKPEDTAVYYCAAYCRASWERDYWGQGTQVTVTS	low polyreactivity
QVQLVESGGGLVQAGGSLRLSCAASGSTFNTNAMGWYRQAPGKERELVAAITWRTGSTYYADSVKGRFTISRDNAKNTVYLQMNSLKPEDTAVYYCAADYFWYRSGRYHYWGQVTQVTVSS	high polyreactivity
QVQLVESGGGLVQAGGSLRLSCAASGSTFNVNAMGWYSQAPGKERELVATISSGGSTNYADSVKGRFTISRDNAKNTVYLQMNSLKPEDTAVYYCAKEYGSIIPYDYWGQGTQVTVSS	low polyreactivity
QVQLVESGGGLVQAGGSLRLSCAASGSTFNVYAMGWYRQAPGKERELVAGIRDSDGSTNYADSVKARFTISRDNAKNTVYLQMNSLKQEDPAVYYCAADLYDINWSVWLDYWGQGTQVTVSS	low polyreactivity
QVQLVESGGGLVQAGGSLRLSCAASGSTFNVYGMGCYRQAPGKERELVAAINRDGITYADSVKGRFTISRDNAKNTVYLQMNSLKPEDTAVYYCAAGYSPYKGSAGYYWGQGTQVTVSS	low polyreactivity
QVQLVESGGGLVQAGGSLRLSCAASGSTFNYNAMGWYRQAPGKERELVAAIRSSDGSTHYADSVKGRFTISRDNAKNTVYLQMNSLKPEDTAVYYCAADYDVWWRDDYWGQGSQVTVSS	low polyreactivity
QVQLVESGGGLVQAGGSLRLSCAASGSTFNYNPMGWYRQAPGKERELVAAISSSGGSTYYADSVKGRFTISRDNAKNTVYLQMNSLKPEDTAVYYCATGGSSRVRTEGDYWGQGTQVTVSS	low polyreactivity
QVQLVESGGGLVQAGGSLRLSCAASGSTFNYYAMGWYRQAHGTERELFAAITYRGGSTYYADSVKGRFTISRDNAKNTVYLHMNLLKPEDTAVYYCNARQVRYMYAQDEGYDYWGLGTQVTVSS	high polyreactivity
QVQLVESGGGLVQAGGSLRLSCAASGSTFPANAMGWYRQAPGKERELVATISWSGGRTYYADSVKGRFTISRDNAKNTVYLQMNSLKPEDTAVYYCAANGHGRVYFGGGNWGQGTQVTVSS	high polyreactivity
QVQLVESGGGLVQAGGSLRLSCAASGSTFPAYAMGWYRQAPGKERELVAAINTSGGNTYYADSVKGRFTISRDNAKNTVYLQMNSLKPEDTAVYYCAADYKARYSEKFDYWGQGTQVTVSS	low polyreactivity
QVQLVESGGGLVQAGGSLRLSCAASGSTFPFYAMGWYRQAPGKERELVAAITASVGNTYYADSVKGRFTISRDNAKNTVYLQMNSLKPEDTAVYYCNADEWYTYIPDFDYWGQGTQVTVSS	low polyreactivity
QVQLVESGGGLVQAGGSLRLSCAASGSTFPGNAMGGSRQAAGKERELVASISGGGDSTYYADSVKGRFTISRDNAKNTVYLQMNSRKPEDTAVYYCAADYRQEPGYTGYYYWGQGTQVTVSS	low polyreactivity
QVQLVESGGGLVQAGGSLRLSCAASGSTFPGNAMGGYRQAPGKERELVAAINWSGDSTYYADSVKGRFTISRDNAKNTVYLQMNSLKPEDTAVYYCAAYGDGYYYWGQGTQVTVSS	low polyreactivity
QVQLVESGGGLVQAGGSLRLSCAASGSTFPGNAMGWYRQAPGKERELVAAIRDRGTSTYYADSVKGRFTISRDNAKNTVYLQMNSLNPEDTAVYYCAARSFTADLGYYWGQGTQVTVSS	high polyreactivity
